Patent US20140011978A1 (EPFL TTO, published 2014)

Columns and labels:
BSA = target: T1, BSA (bovine, UniProt P02769); experiment: ELISA: BSA coated as control, Fg fragment in solution, A450 (methods analogous to Example 3)
T1 construct: negative control; also called bovine serum albumin
Procedure: (§1) ELISA plates were coated with cytokines or BSA and further incubated with TNC III1-5 to analyze binding of TNC III1-5 to a wide variety of cytokines. […] A large amount of heparin (4 μM) impaired binding of TNC III1-5 to these cytokines. Results are depicted in FIG. 3. Method: 50 nM of cytokine was coated for (1 hr, 37° C.). After blocking with 2% BSA (1 hr, RT). 100 nM TNC III1-5 was applied in PBST (0.05% tween, 0.1% bovine serum albumin (BSA)) (1 hr, RT). TNC III1-5 was detected with horseradish peroxidase (HRP)-anti-HIS in PBST (1 hr, RT) and developed with 3,3′,5,5′-tetramethylbenzidine (TMB), a soluble colorimetric HRP […]. Addition of sulfuric acid stop solution changes the color to yellow, enabling accurate measurement of the intensity at 450 nm using a spectrophotometer or plate reader. […] Heparin (4 μM) was added to TNC III1-5 to test the effect of blocking the heparin binding site of TNC III1-5, which has been defined as domain TNC III5 (Weber, Zimmermann, et al., 1995).
(§2) ELISA plates were coated with cytokines or BSA and further incubated with Fg β15-66 to analyze binding of […] to a wide variety of cytokines. […] Results are depicted in FIG. 4. Method: The methods were analogous to those used in Example 3.

EGF = experiment: ELISA: growth factor coated, Fg fragment in solution, A450 (methods analogous to Example 3)
Procedure: as §1, §2

BMP-2 = BMP-2 (UniProt P12643 283-396); experiment: as above
Procedure: as §1, §2

PDGF-DD = PDGF-DD (UniProt Q9GZP0 250-370); experiment: as above
Procedure: as §1, §2

NT-3 = target: T2, NT-3 (UniProt P20783 139-257); experiment: as above
T2 sequence (looked up): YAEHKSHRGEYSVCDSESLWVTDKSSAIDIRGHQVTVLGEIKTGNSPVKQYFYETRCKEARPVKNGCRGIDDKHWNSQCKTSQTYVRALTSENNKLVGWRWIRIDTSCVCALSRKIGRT
Procedure: as §1, §2

TGF-β2 = target: T3, TGF-β2 (UniProt P61812 303-414); experiment: as above
T3 sequence (looked up): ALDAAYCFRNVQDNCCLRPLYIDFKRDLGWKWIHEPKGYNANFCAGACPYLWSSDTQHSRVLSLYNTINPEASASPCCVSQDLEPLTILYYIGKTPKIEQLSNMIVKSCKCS
Procedure: as §1, §2

IGF-BP3 = IGF-BP3 (UniProt P17936 28-291); experiment: as above
Procedure: as §1, §2

BDNF = target: T4, BDNF (UniProt P23560 129-247); experiment: as above
T4 construct: also called brain-derived neurotrophic factor
T4 sequence (looked up): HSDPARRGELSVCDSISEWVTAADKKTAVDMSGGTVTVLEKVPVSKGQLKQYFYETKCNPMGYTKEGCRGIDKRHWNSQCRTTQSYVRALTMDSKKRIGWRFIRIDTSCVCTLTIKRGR
Procedure: as §1, §2

PDGF-BB = target: T5, PDGF-BB (UniProt P01127 82-190); experiment: as above
T5 construct: The name implies a homodimer of B chains
Procedure: as §1, §2

FGF-6 = target: T6, FGF-6 (UniProt P10767 38-208, limits assumed); experiment: as above
T6 sequence (looked up): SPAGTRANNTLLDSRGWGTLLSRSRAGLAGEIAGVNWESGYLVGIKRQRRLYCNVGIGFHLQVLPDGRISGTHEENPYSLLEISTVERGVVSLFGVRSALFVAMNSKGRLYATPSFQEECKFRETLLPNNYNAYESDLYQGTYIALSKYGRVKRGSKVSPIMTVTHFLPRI
Procedure: as §1, §2

VEGF-A165 = VEGF-A165 (UniProt P15692-4 27-191); experiment: as above
Procedure: as §1, §2

IGF-BP3, sequence (P17936 28-291 limits assumed): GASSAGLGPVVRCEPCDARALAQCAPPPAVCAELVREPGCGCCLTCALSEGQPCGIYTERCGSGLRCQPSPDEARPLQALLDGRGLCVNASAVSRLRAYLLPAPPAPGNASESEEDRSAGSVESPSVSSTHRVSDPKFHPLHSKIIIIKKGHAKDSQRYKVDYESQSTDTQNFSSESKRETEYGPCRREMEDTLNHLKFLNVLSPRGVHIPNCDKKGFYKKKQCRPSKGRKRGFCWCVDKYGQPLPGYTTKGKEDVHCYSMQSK
VEGF-A165, sequence (P15692 other isoform, or with tags, fused parts or gaps limits assumed): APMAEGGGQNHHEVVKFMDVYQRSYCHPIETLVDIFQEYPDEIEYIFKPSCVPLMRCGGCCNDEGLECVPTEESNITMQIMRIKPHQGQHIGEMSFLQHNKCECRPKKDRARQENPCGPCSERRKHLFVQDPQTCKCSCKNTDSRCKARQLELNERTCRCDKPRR
T1 sequence (P02769 25-607 limits assumed): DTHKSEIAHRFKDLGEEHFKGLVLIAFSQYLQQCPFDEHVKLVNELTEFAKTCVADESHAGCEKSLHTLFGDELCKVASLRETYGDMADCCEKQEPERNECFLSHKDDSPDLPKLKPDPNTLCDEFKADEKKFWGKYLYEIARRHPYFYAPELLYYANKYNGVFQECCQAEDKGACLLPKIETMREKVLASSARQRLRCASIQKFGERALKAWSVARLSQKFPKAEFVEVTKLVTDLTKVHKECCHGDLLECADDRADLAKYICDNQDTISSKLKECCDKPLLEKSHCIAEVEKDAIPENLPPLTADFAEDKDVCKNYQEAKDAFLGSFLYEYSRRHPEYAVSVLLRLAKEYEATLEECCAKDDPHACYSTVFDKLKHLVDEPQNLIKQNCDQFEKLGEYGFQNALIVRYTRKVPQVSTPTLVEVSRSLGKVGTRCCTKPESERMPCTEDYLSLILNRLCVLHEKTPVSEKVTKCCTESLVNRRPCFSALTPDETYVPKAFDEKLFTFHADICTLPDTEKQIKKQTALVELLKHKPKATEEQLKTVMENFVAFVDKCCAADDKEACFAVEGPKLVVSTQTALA
PDGF-DD, sequence (Q9GZP0 250-370): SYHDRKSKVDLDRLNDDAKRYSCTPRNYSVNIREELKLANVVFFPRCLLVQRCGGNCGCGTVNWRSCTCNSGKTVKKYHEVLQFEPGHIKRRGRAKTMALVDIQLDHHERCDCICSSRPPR
T5 sequence (P01127 82-190 limits assumed): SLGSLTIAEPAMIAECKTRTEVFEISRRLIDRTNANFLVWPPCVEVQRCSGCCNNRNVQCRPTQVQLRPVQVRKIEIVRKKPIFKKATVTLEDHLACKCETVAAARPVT
BMP-2, sequence (P12643 283-396 limits assumed): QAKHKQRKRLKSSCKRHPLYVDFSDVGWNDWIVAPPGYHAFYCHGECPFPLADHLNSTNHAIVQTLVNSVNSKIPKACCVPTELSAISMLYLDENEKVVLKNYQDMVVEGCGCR

B1: Fg β15-66 (other)
chain: GSNQEQVSPLGHRPLDKKREEAPSLRPAPPPISGGGYRARPAKAAATQKKVERKAPDAGGCGHHHHHH
notes: Made as a GST fusion; GST was cleaved off; also called TG-Fg β15-66; fibrinogen β15-66 domain
- binding result (BSA): no binding
- binding result (EGF): no binding
- binding result (BMP-2): binds
- binding result (PDGF-DD): binds
- binding result (NT-3): binds
- binding result (TGF-β2): binds
- binding result (IGF-BP3): binds
- binding result (BDNF): binds
- binding result (PDGF-BB): binds
- binding result (FGF-6): no binding
- binding result (VEGF-A165): binds
